{"source": "patent US6165732A", "about": "“Method for identifying apoptosis modulating compounds” (Washington University, priority 1998, dated 2000)", "molecules": {"B1": {"name": "Bcl-2: recombinant murine Bcl-2 polypeptide lacking the C-terminal signal-anchor membrane targeting sequence (amino acids 1-218 of SEQ ID NO:9) (protein)", "chain": "MAQAGRTGYDNREIVMKYIHYKLSQRGYEWDAGDADAAPLGAAPTPGIFSFQPESNPMPAVHREMAARTSPLRPLVATAGPALSPVPPCVHLTLRRAGDDFSRRYRRDFAEMSSQLHLTPFTARGRFATVVEELFRDGVNWGRIVAFFEFGGVMCVESVNREMSPLVDNIALWMTEYLNRHLHTWIQDNGGWDAFVELYGPSMRPLFDFSWLSLKTLL"}}, "key": {"[1]": {"conditions": "cited from earlier work"}, "[2]": {"assay": "Low pH channel formation after addition of protein to an established planar lipid bilayer", "type": "biochemical", "conditions": "for conductance of initial channel: pH 4.0, initial current", "text": "(§1) The Bax and Bcl-2 polypeptides used in the ion channel studies reported herein were recombinant murine Bcl-2 and Bax polypeptides lacking the C-terminal signal-anchor membrane targeting sequence (Bcl-2ΔC21, amino acids 1-218 of SEQ ID NO:9 and BaxΔC19, amino acids 1-173 of SEQ ID NO:6). These deletion derivatives, also referred to herein as BaxΔTM and Bcl-2ΔTM, were used to avoid any interference of the C-terminal signal-anchor membrane targeting sequence with the capacity of internal α helices to mediate insertion into artificial lipid bilayers.\n(§2) Planar lipid bilayers were prepared from soybean lipids by chloroform extraction of Azolectin Type II (10-20% choline, 80-90% negatively charged lipids) (Sigma). The chloroform was removed with a stream of nitrogen and the lipids stored under N2 until dissolved in decane at 30 mg/ml. This preparation was then stored under nitrogen. The 0.25 mm orifice of a polystyrene cuvette (Warner Instruments) was pretreated with 2 μl of the decane lipid solution and the solvent allowed to evaporate. The cuvette was then placed into a bilayer chamber and connected to Bilayer Clamp BC525-a (Warner Instruments) by Ag/AgCl electrodes via agar salt bridges. Data were collected using an Axoscope (Axon Instruments Software), archived on video tape using a Neurocorder DR-484 (Neuro Data Instruments), and analyzed using Origin (Microcal) and pClamp6 (Axon Instruments Software). Slope conductance was calculated by the method of least squares and the variance is given. Ion selectivities were calculated using the reversal potential and the Goldman equation. The reversal potential means the zero-current potential of a bilayer membrane. The reversal potential is zero with no ion gradient and the magnitude of the potential in the presence of an ion gradient reflects the cation versus anion selectivity of the bilayer.\nBilayers were formed by spreading with a polished glass rod and allowed to thin to a capacitance of 0.4 μF/cm^2 at which point the noise was typically 0.2 pA and the leak conductance was 20 pS. The salt concentrations were initially 450 mM KCl in the cis chamber (1.0 ml) and 150 mM KCl in the trans chamber (0.5 ml) to permit identification of spontaneous initial currents. Outward (positive) currents were defined as K^+ moving cis-to trans. All solutions were buffered to pH 4.0 with 10 mM K-acetate. BaxΔTM or Bcl-2ΔTM (approx. 1 μg) was added to the cis chamber with mixing. After initial currents were identified the soluble protein was usually removed by exchanging the cis chamber contents with aliquots of buffer."}, "[3]": {"assay": "Channels in planar lipid bilayers at pH 7.0 after fusion with unilamellar proteoliposomes containing the protein", "type": "biochemical", "text": "as §1, §2\nProteoliposomes for fusion with a planar lipid bilayer were prepared as follows. Purified protein (0.25 μg) was added to […] lipid (Azolectin) in 20 μl of KCl buffer (150 mM KCl, 10 mM HEPES, pH 7.0). This mixture was placed into a dialysis bag with a molecular weight cutoff of 12 KDa. After 16 hours dialysis in 3000 volumes of 150 mM KCl (10 mM HEPES, pH 7.0) the proteoliposome suspension was removed and placed on ice for immediate use. The bilayer was set up with a 450:150 cis to trans KCl gradient to identify the ion selectivity of the initial currents. Fusion was initiated by adding 5-20 μl of lipid vesicles (only 5-20 ng of protein) to the cis bilayer chamber with mixing. Non-fused proteoliposomes were removed from the compartments and solutions exchanged as described above.\nControl bilayers containing Bcl-2 or Bax channels were prepared by fusion of unilamellar proteoliposomes with incorporated Bcl-2ΔTM or BaxΔTM with an established planar bilayer as described in Example 4. Test bilayers containing Bcl-2 channels were prepared in the same manner to which an 11 mer Bax peptide (SEQ ID NO:1) with known death agonist activity was added at 20, 50 or 100 μM. A voltage of 80 mV was applied to each control and test channel and its conductance measured for a period of 12 to 16 seconds and the frequency that each channel was measured at a particular conductance level (pA) was calculated. The data, representing about 500,000 measurements, are shown as histograms in FIGS. 8A-8E. […]"}, "[4]": {"conditions": "cited from earlier work", "remark": "listed apart in the source"}, "[5]": {"assay": "Cl- release (efflux) from KCl loaded synthetic lipid vesicles as a function of pH", "type": "biochemical", "experimental": "This example illustrates that Bax and Bcl-2 induce the release of ions from synthetic lipid vesicles.\nUnilamellar vesicles composed of 40% 1,2 dioleoyl phosphatidyl glycerol and 60% 1,2 dioleoyl phosphatidyl choline (Avanti Polar Lipids) were prepared in 100 mM KCl, 2 mM CaNO3 and 10 mM dimethylglutarate, pH 5.0 as previously described (Peterson et al., J. Membr. Biol. 99:197-204, 1987). The resulting liposomes were diluted 200-fold to a concentration of 0.05 mg/ml in 100 mM KNO3, 2 mM CaNO3 and 10 mM dimethylglutarate which was titrated to pH 3.5, 4.0, 4.5, 5.0, 5.5 or 6.0 with NaOH or with acetic acid. BaxΔC19 and Bcl-2ΔC21 were added at a concentration of 500 ng/ml and Cl^- efflux was measured with a Cl^- combination ion selective electrode (Accumet). Triton X-100 (0.1%) was added to release the total encapsulated Cl^- at the times indicated by the arrows in FIG. 1. The total amount of Cl^- released was quantitated by a calibration curve produced by successive additions of 25 μM KCl."}, "[6]": {"conditions": "450/150 mM KCl gradient, pH 7.0"}, "[7]": {"conditions": "stated as behaviour like Bax / Bcl-2 (criterion)"}}}
{"molecule": "B1", "values": [{"measurement": "pore forming activity in lipid vesicles", "setting": "[1]; pH above 5.5", "result": "little or no detectable pore forming activity"}, {"measurement": "insertion into synthetic lipid vesicles", "setting": "[1]; pH values below 5.5", "result": "insert into synthetic lipid vesicles at pH values below 5.5"}, {"measurement": "antagonism of BaxΔTM pore-forming activity in liposomes", "setting": "[1]; physiological pH (Antonsson et al.)", "result": "antagonized"}, {"measurement": "initial current (direction)", "setting": "[2]; 450/150 mM KCl cis to trans, pH 4.0, spontaneous (OS)", "result": "initial outward"}, {"measurement": "PK/PCl of initial current", "setting": "[2]; 450/150 mM KCl, pH 4.0", "result": 3.9}, {"measurement": "magnitude of initial current", "setting": "[2]; 450/150 mM KCl, pH 4.0", "result": "0.85±0.06", "unit": "pA"}, {"measurement": "time to appearance of initial current", "setting": "[2]; 450/150 mM KCl, pH 4.0", "result": "≤ 5", "unit": "min"}, {"measurement": "conductance of initial channel", "setting": "[2]; 450/150 mM KCl", "result": "80.3±0.06", "unit": "pS"}, {"measurement": "conductance of initial channel", "setting": "[2]; 450/150 mM KCl, listed as Bcl-2ΔTM", "result": 80, "unit": "pS"}, {"measurement": "duration of initial state", "setting": "[2]; pH 4.0", "result": "2 to 5", "unit": "min"}, {"measurement": "slope conductance of final stable channel", "setting": "[2]; pH 4.0", "result": "1.90±0.06", "unit": "nS"}, {"measurement": "duration of channel open periods", "setting": "[2]; pH 4.0, with brief closures", "result": "5 to 10", "unit": "s"}, {"measurement": "effect of shifting pH on conductance and selectivity", "setting": "[2]; pH 4.0 to 7.0", "result": "not Bcl-2"}, {"measurement": "PK/PCl after pH shift to 7.0", "setting": "[2]; pH 7.0 after insertion at pH 4.0", "result": 6.5}, {"measurement": "conductance of large pore after pH shift to 7.0", "setting": "[2]; pH shifted to 7.0, FIG. 4E", "result": "2.14±0.04", "unit": "nS"}, {"measurement": "ion selectivity of channel", "setting": "[2]; planar bilayers, low pH insertion", "result": "mild cation selectivity"}, {"measurement": "single channel current", "setting": "[3]; 450/150 mM KCl gradient, FIG. 5A", "result": 5, "unit": "pA"}, {"measurement": "PK/PCl from reversal potential", "setting": "[3]; [6]", "result": 2.4}, {"measurement": "initial current (direction)", "setting": "[3]; [6]", "result": "outward (K^+) current"}, {"measurement": "conductance pattern", "setting": "[3]; neutral pH", "result": "complex multichannel conductance pattern"}, {"measurement": "ion selectivity of channel", "setting": "[3]; neutral pH, proteoliposome fusion", "result": "K^+ -selective"}, {"measurement": "voltage dependence of open channel current", "setting": "[3]; symmetrical 150 mM KCl", "result": "linear"}, {"measurement": "hyperpolarization beyond which a channel closure occurs", "setting": "[3]; symmetrical 150 mM KCl, FIG. 5C", "result": "more than -70 mV"}, {"measurement": "slope conductance", "setting": "[3]; symmetrical 150 mM KCl, pH 7.0", "result": "1.08 (s.d. 0.10, n=5) nS"}, {"measurement": "rectification", "setting": "[3]; symmetrical KCl, neutral pH", "result": "no rectification"}, {"measurement": "primary channel conductance", "setting": "[4]; lipid bilayers, physiological pH (Schendel et al.)", "result": "18±2", "unit": "pS"}, {"measurement": "ion selectivity", "setting": "[4]; pH 5.4 (Schendel et al.)", "result": "cation selective"}, {"measurement": "multiple conductance states", "setting": "[4]; planar lipid bilayers, physiological pH", "result": "multiple channel conductance states"}, {"measurement": "inactivation of Cl- release", "setting": "[5]; by pH 5.0, 500 ng/ml, FIG. 1B", "result": "complete inactivation"}, {"measurement": "Cl- release from KCl loaded lipid vesicles", "setting": "[5]; pH 3.5", "result": 81, "unit": "%"}, {"measurement": "relative activity of Bcl-2 versus Bax (Cl- release)", "setting": "[5]; pH 3.5", "result": "twice as active as Bax"}, {"measurement": "Cl- release from KCl loaded lipid vesicles", "setting": "[5]; pH 4.0, same quantities of each protein", "result": 75, "unit": "%"}, {"measurement": "Cl- release from KCl loaded lipid vesicles", "setting": "[5]; pH 5.0", "result": 7, "unit": "%"}, {"measurement": "release of Cl- on pH shift", "setting": "[5]; pH 5.0 shifted to 4.0, FIG. 1D", "result": "activated the release of Cl^-"}, {"measurement": "ratio of channel indicator release at pH 3.5 and pH 4.0 (R3.5/4.0)", "setting": "[5]; [7]", "result": "about 1.0"}, {"measurement": "ratio of indicator release at pH 4.0 and 5.0 (R4.0/5.0)", "setting": "[5]; [7]", "result": "greater than 7.0"}]}
